Like-named read-outs stand apart in the source and are kept apart here.
How the values were obtained:
Assay in all cases: SEC
[1] = target: endogenous Xenopus Cdt1/RLF-B (Xenopus (endogenous in egg extract)) (UniProt Q9I9A7)
[2] = target: endogenous Xenopus Cdt1/RLF-B (Xenopus (endogenous in egg extract)) (UniProt Q9I9A7); remark: listed apart in the source
[3] = target: endogenous Xenopus Cdt1/RLF-B (Xenopus (endogenous in egg extract)) (UniProt Q9I9A7); remark: listed apart in the source

Chain of UniProt Q9I9A7 (Q9I9A7 whole entry): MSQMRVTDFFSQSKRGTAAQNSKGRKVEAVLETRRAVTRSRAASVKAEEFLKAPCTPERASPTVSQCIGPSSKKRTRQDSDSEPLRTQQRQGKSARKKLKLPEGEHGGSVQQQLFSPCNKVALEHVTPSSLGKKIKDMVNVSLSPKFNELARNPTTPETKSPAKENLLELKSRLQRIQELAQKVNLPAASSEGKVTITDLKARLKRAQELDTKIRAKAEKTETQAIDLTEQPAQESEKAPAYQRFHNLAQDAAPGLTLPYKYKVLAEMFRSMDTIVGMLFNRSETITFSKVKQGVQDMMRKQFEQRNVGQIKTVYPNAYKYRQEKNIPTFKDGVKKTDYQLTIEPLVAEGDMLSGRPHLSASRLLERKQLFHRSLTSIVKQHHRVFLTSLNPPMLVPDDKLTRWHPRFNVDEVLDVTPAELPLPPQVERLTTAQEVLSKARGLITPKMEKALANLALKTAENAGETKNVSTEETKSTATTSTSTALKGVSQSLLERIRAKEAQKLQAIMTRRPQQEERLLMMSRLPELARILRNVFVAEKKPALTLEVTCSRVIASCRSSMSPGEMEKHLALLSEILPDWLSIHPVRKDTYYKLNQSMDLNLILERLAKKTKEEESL

What does the source list for “endogenous Xenopus geminin (from UniProt O93352 1-219) (natural protein)”?
percent of geminin co-fractionating with Cdt1/RLF-B [1]: 24%; percent of geminin co-fractionating with Cdt1/RLF-B [2]: 45%; percent of geminin co-fractionating with Cdt1/RLF-B [3]: 61%; percent of geminin in the smaller complex without Cdt1/RLF-B [3]: > 95%

From publication PMC3605701
